Values of other authors, collected in PMC6684861 (Traffic (Copenhagen, Denmark), 2018).

Tested on: mouse embryonic fibroblasts
Conditions: ref unpublished observations

B1: DNA polymerase λ (protein, UniProt Q9UGP5 1-575, looked up)
DNA polymerase lambda: MDPRGILKAFPKRQKIHADASSKVLAKIPRREEGEEAEEWLSSLRAHVVRTGIGRARAELFEKQIVQHGGQLCPAQGPGVTHIVVDEGMDYERALRLLRLPQLPPGAQLVKSAWLSLCLQERRLVDVAGFSIFIPSRYLDHPQPSKAEQDASIPPGTHEALLQTALSPPPPPTRPVSPPQKAKEAPNTQAQPISDDEASDGEETQVSAADLEALISGHYPTSLEGDCEPSPAPAVLDKWVCAQPSSQKATNHNLHITEKLEVLAKAYSVQGDKWRALGYAKAINALKSFHKPVTSYQEACSIPGIGKRMAEKIIEILESGHLRKLDHISESVPVLELFSNIWGAGTKTAQMWYQQGFRSLEDIRSQASLTTQQAIGLKHYSDFLERMPREEATEIEQTVQKAAQAFNSGLLCVACGSYRRGKATCGDVDVLITHPDGRSHRGIFSRLLDSLRQEGFLTDDLVSQEENGQQQKYLGVCRLPGPGRRHRRLDIIVVPYSEFACALLYFTGSAHFNRSMRALAKTKGMSLSEHALSTAVVRNTHGCKVGPGRVLPTPTEKDVFRLLGLPYREPAERDW
In the case of B1, the “nuclear/cytosolic ratio in mouse embryonic fibroblasts” value is given as 8.
